The DeepSol protein solubility set

Experiment: soluble on expression in E. coli; label from the status in PepcDB or PDB records

Sequence | soluble on expression in E. coli
MGSDKIHHHHHHMNAERQPSCCKVRLLLCDKSYPSHQSPIYTPTPPPWPLLALPGGVIMRTYLSSVAAIMSRSPDPAPRSSAPGRRASSSTRPPLARIGEVAYLKVVAVNTTGAFLDWGQPKDVLLPFAEQRFRPEVGKRVLVMLYEDAQGRPVASMRLDRFLADEATDLKAGDQVALVVAERTDLGFKAVVDHRYWGLLYADDIVHPPRRGQRLTGYIKRVREDGRLDLAMLPPGEAGLDVVGDKVLALLRCHGGFVALGDKTPAAEIKARVGVSKSAFKQAVGRLYKKRLITIEAEGIRLTREAIDDASSD | not soluble
MGSSHHHHHHSSGLVPRGSHMPLYYRSIIEEHMAVRKHVGIFDVSHMGDVTVSGKDASAFLDHMFPTKVSNLKNGECVYTAFLNDSGLMIDDTIVYRMGEDSYFFVPNAGTTEKIYRWVSDHSAGYSVKIENVSNRISSIALQGPESEEVLNELGFSYPGYFKFQYVSGKYMNAITGKDQIIISGTGYTGEKGVEFIIPNEHAVELWKKLLEAINKRNGLPAGLGARDTLRMEKGMLLSGHDFNEDRDPYEASVSFIVNNDEDFVGKKNLEIRRRSDHEIFRGFVLSDGIPRNGNPIKAGGKRVGTVTSGTISPVLNKGIALGYIDKAYSKENTEVMIEIRSVDHKAVVTKPRIVK | soluble
DVQLQQSGPELKKPGETVKLSCKASGYTFTNFGLNWMKQAPGKGLKWMGWINTYTGESTYADDFKGRFAFSLETSASTAYLQINNVKNEDTATYFCARGFYYYGSRYFYFDYWGQGTTLTVSSAKTTAPSVYPLAPVCGDTTGSSVTLGCLVKGYFPEPVTLTWNSGSLSSGVHTFPAVLQSDLYTLSSSVTVTSSTWPSQSITCNVAHPASSTKVDKKIEPRGP | soluble
MVERLTIIRGVEKFELQTKTARWVLAKEEGYSPVQMLVSAIGACGGYVYQSVLENSHIPFEFEKIEVTYSREVERRAQPLKQVTILFYVTVPEAFQERATRCLKLVSPNCPVIQSLAERITVEETVVFKK | not soluble
MGSDKIHHHHHHMPRKTTSLCRRILLENYTTRGEKMITNLSDRVFVIGTGTSANSVLVCGKKFCVLFDSTLFPEKARKIKEFAAEILGKEIAVVFNTHYHPDHTFGNEVFDRIISHSLTRKSLEEMDEEYIRKIGVEVSLKFPDETFSERENYRFGDIVVEAVHLGGHTPDSSIFVLKNEKIVICGDLLTTGIHAEIVTDSDLFGWIEALSEIEKIRADYFVPGHGKVGTIEDVRNMKDYISKVLRFREGSVKHSELLEDPNFINREHPELLTWGLENIIR | not soluble
MRRSNEPTKRKSTTGHGDYAEHKKRKSMSKEATPVLEENLTPDVMINNLHEIVTQILENQELPETAIIELEGFDATAATMEEYMQKREETRKLVTDSEFFDQKTELNLSVASLAGAQVEVDKRVTTRGMSRKLHDECGINEKDILYQGLDYHGTESRVSKELRDSRQASIIESCVDFQKQIQWKIGIMEKVKAKSGRSYPMSDGPSVRTRGGQDKQREEMKKQQKELEKSKKQRKTRAAGEQDPFKTPQKKIEFNALDERRIIENYQLEVASEIRTHRPFLSRSIAPVPFNIDILDDEEEEMEIS | not soluble
MLTERQLLIFRAIIDHFTWTIQPVGSKNLLKEKSLPYSSATIRNEMGVLEEYGFIEKTHSSSGRVPSEKGYRFYVDYLLQPKKLDKSDRQMIRSFFSENYYEMEGLIQNSALMLSDLTNYTSILLGPEATKNHLSGFRFVPINNFQAMLILITDQGHVDNHLVTIPEGTTLSDIERMVNILNERLVGLSLDDLKVQIPMEVKELLGKHVRNYESFMHVFSDSFAQASQQKVYFGGKTNILNQPEFHDINKVREMLHLMEEEQDVYELFRDIPDGLQVKIGRENNNSLMEDCSIITATYNIAGERVGGIVLLGPTRMEYSRMMGLVDVMSRDLTDVLTKLYRDNQN | not soluble
MHEPMKTLKNIHAEIRICQKFPKSTVQKRFSEFEELIKAASKNARNWKPISSVELFQGDSSLNELFEKLVIGTCELRDGELFENVNDLTINPSNIHVYKLHKDGPLSQNIGDDDGDESIIGSQLWQLPCVEFDSIWENLIYDSNLKNEVMSYVAALARLSEKHVNTKIINVNRLILLTGPPGTGKTSLCKGLAQHLSIRMNDKYSKSVMLEINSHSLFSKWFSESGKLVQKMFDQIDELAEDEKCMVFVLIDEVESLGMCRESSSSRSEPSDAIRAVNALLTQIDRIRRRDNVLILCTSNLESTLDKALVDRADIVKNVGQPSDFARYSMLKSSIMELARIGVVIDNEVHTDYWPQDICDTKAPRNEFTEILFKIAQEARGLSGRAISMLPTLVYSKSPEETITLPNCMNLFLEAVKERLSRNN | not soluble
SMRTAQEVETYRRSKEITVRGHNCPKPVLNFYEANFPANVMDVIARQNFTEPTAIQAQGWPVALSGLDMVGVAQTGSGKTLSYLLPAIVHINHQPFLERGDGPICLVLAPTRELAQQVQQVAAEYCRACRLKSTCIYGGAPKGPQIRDLERGVEICIATPGRLIDFLECGKTNLRRTTYLVLDEADRMLDMGFEPQIRKIVDQIRPDRQTLMWSATWPKEVRQLAEDFLKDYIHINIGALEL | soluble
GMSQRIGVIDMGTNTFHLLITDIVNDRPHTLVNEKSAVGLGKGGITKGFITEEAMDRALDTLKKFRVILDEHAVVHVIATGTSAVRSGSNKQVLIDRIKKEVNIDVEVIDGAREAELIFRGVQQAVPMEDHISLAMDIGGGSVEFIIGNKNEILWKQSFEIGGQRLIDRFHVHDPMREDDRVMMHNYFDEVLVPLEKAINTWRPTQLIGCSGTFDTLAEMNIQHHREKIALEKQTSYLLSLPDFNRLRKQLVASTRRERLAIAGMIELRADMVVVAICLIEHVLKLVSTNAITVSTYSLKEGVLYTMLDGVKVGS | soluble
MATFKDFRNNVKPNWCPGCGDFSVQAAIQKAAANIGLEPEEVAIITGIGCSGRLSGYINSYGVHSIHGRALPLAQGVKMANKDLTVIASGGDGDGYAIGMGHTIHALRRNMNMTYIVMDNQIYGLTKGQTSPSSAVGFVTKTTPKGNIEKNVAPLELALSSGATFVAQGFSSDIKGLTKLIEDAINHDGFSFVNVFSPCVTYNKINTYDWFKEHLTSVDDIENYDSTDKQLATKTVIEHESLVTGIVYQDKETPSYESQIKELDDTPLAKRDIKITEDTFNALTEQFI | not soluble
MGSDKIHHHHHHMLTLRQALLALFHQFETLFHYLEHLCRHRSAARPGRSSFLHSSVEIQVKETLIRNLWYVAGTSDEFAPGQLVGQTIVGLPLVLWRPEAGGEVVAFDGRCCHKRMPLAAGKLLADGTLECAYHGLCFDSAGKCVKIPSQPGRAIPSRAKLRPYPIVEQDGMVWIWMGDDANPALRPPRIPELASPEWEAIRVQNAEVPTNYLLLIENLLDISHFYPLHDGNIGDIANSEIPVEFSHEGVQGNRSVTSVRKAESYRHPPYLEDFFGYELVDRHHSHSMISPAAIRVDLRCAPPGRLETEDERGYILTHLITPIDERHHRWRVIAACRAGHRWPADPSVSTVARVAEKFPGVIAQDLWALTEQQKMLDLADTHYLGEMHLRADTGILKAREIVRDMVAAEAQPASQAVAA | not soluble
MGSDKIHHHHHHMLAYGYQKFGGPTVFEELPQSQLIPTDNQLLIKTLAVNLTEEDRLERLGTIQSVALPHIPGHDVIGKIIQVGAAVTDLDVGTVVAARTNHTYADQVCLDSDLAVTMPTNLDPVTAVSLVTPGIVAYKTVRYFADIQADQTVIVKGAGSPVGLLIIQLAKRLGAHVIAIASDRYANLIATLGVDQFVDYQHQNPVHVLADRGDVVINVAIDGVGGKDDLAMAKFDATIASFARHLPATSKSIRFQAIQPTEVISDQAALQLLFKLLDTGQLTTTINEQLPFNLTGFIQGHQRLDEPHVGQVVVAR | not soluble
SWSGLLPPGLNESDAESNSEDEATLENSGLNLQEDKEDESIRKTEIIDFSTDEPKTETESNVNAYEECPSGIPIDMWNKFQELHKKHSEQKSTTSRFRGKRRKRSRKDKLKNEKELHSEPSSNETQWKELTQYFGVNDRFDPPVKRKKVEKSGLEKRIDQAVEEWNIEKAEELSNQLATRELGVKIAKAVACHNFVKAKKEVENSQAARKKKKLAWGFEAKKRWETKSNMGYM | soluble
MAGDPMSGSKTSAEKKESETEKSSDIAQVKIKDVSYTLPSKYDKSTSDDQLVLKVNVAVKNTGKDPLNVDSMDFTLYQGDTKMSDTDPEDYSEKLQGSTINADKSVEGNLFFVVDKGKQYELNYTPESYGDKKPKSVTFKIDGKDKKILATADKLQDSAKALSAYVDVLLFGKDNADFEKITGANKNEIVNDFNESAKDGYLSASGLSSTYADSKALDNIVNGIKEGLSKNSSIQAKTTSISKDEAIVEATVKPVDASSLSDRIEDKVKDYYSKNSSASYEEAVKYALQVYPEEFKKLGPASSEKTVEVKMKKNDIDQWQLDMDDYRAAELVEAFIKELEHHHHHH | soluble
MGSSHHHHHHDYDIPTTENLYFQGGGGGGMRAAVVYKTDGHVKRIEEALKRLEVEVELFNQPSEELENFDFIVSVGGDGTILRILQKLKRCPPIFGINTGRVGLLTHASPENFEVELKKAVEKFEVERFPRVSCSAMPDVLALNEIAVLSRKPAKMIDVALRVDGVEVDRIRCDGFIVATQIGSTGYAFSAGGPVVEPYLECFILIPIAPFRFGWKPYVVSMERKIEVIAEKAIVVADGQKSVDFDGEITIEKSEFPAVFFKNEKRFRNLFGKVRSIG | soluble
HISLNPDLANEDEVNSCDYWRHCAVDGFLCSCCGGTTTTCPPGSTPSPISWIGTCHNPHDGKDYLISYHDCCGKTACGRCQCNTQTRERPGYEFFLHNDVNWCMANENSTFHCTTSVLVGLAKN | soluble
MRGIHRLSALLVKSASQGKYCDGAGLWLNVRKDNTRSWFFRYTYHNKRREMGLGPVAQLSLKEARELAKHYSAILREGNDPIVFREQTVLKQQSNIFSEIATAAFESKKAELKNEGKNGRWFSPLELHVIPHIGSLSIEKLTANIIRNVLAPLWHEKADTARKALNRINICLKYAAALGLDVDLQACMKARALLGKPRATSTNIPAMPWQEVPAFYQSLDDKILSNLALKLLILTGVRSYPLRYLRLEQIDKDIWTIPKENMKGIVGKVSDFRVPLSHEALKMIEKSLPFEKNGFLFAGSSGKPISDVTLSKFMKDKGFDYRPHGFRSSLRDWIAETTSTPFEIAETVLAHSVGSSVTKAYMRTDFLEQRHTLMEQWAAFITGAT | not soluble
MRFFKHYAPSMIAKHISRLFNGKIHIHGIGEFRFKDGQLVAPTEAEREHYKMVKEINSEITRLKMAYLEHHHHHH | not soluble
MPVRKAKAVWEGGLRQGKGVMELQSQAFQGPYSYPSRFEEGEGTNPEELIAAAHAGCFSMALAASLEREGFPPKRVSTEARVHLEVVDGKPTLTRIELLTEAEVPGISSEKFLEIAEAAKEGCPVSRALAGVKEVVLTARLV | soluble
MQKRVKEGPFTTEWIDLYLEEAVRKGIKEVGIVDHLYRFHEAKGYYEKYVDISDSKLGRIQKEWLDQVKVVSLYDFTKAIEEAKERWGKRGVTLKLGIEADYFIGCEGELKELLALGDFDYVIGSVHFLNGWGFDNPDTKEYFEVHDLRALYDMFFKTVESAIRTELFDIIAHLDNIKVFNYRLDENEQLSYYEEIACALVETNTATEINAGLYYRYPVREMCPSPLYLQVLAKYGVPITISSDAHYPNDLGNYVQENIQTLRAHGVTQVATFTKRARVMRSLEEEVTNSK | not soluble
SLHLGEQIWIYQGKKKEWLLGQIPEVNSALVSLNSDNGAIEAIVGGFSFEQSRFNRATQSLVQVGSSIKPFIYAAAMNKGLSLSTTLSDTPITINKQGQKPWEPKNADKRYEGPLRLRVALGKSKNMVAIRALQMSGVDYVADYLSRFGFNPDQFMATEALALGAASFTPLEMARAYAVFDNGGYLIEPYIIDRILDNQGNELFKANPALACLECNHIDLAYQEPTYFDGVKIHDEDQLRAEIDEINANPAASNTQTEDDQEPEIATTIKPQAPSLMTESIKNDASMRYAPRVISGELAFLMRSALNSAIYGEPGQNWHGTSRAIAKAFKRKDIGGKTGTTNNSKVTWYAGFGANIVTTVYVGFDDNRRDLGKGEAGAKTAMPAWIKYMKVALADKK | not soluble
